In paper PMC8262854 one finds other and stoichiometry N data, which are given here for four substances.

For orientation: stoichiometry N means the number of molecules, sites or subunits per partner or assembly.

For data set [1], the target named is Du172.17 gp140.664.R4 Env trimer (HIV-1 Du172.17 (clade C)). Kind of data set: crystal structure.

Where two headings read alike, the source gives them in different places.

“BG505.T332N Env (pseudovirus glycan hole mutant P291T): P291T (glycan site added at N289)”: for the setting “N-glycosylation at N289”, the other result is reported as “decreases”.

In the case of “BG505.T332N Env (pseudovirus glycan hole mutant S241N): S241N (glycan site added)”, under “N-glycosylation at N241”, the other result was “decreases”.

Regarding “BG505.T332N Env (pseudovirus glycan hole mutant T465N): T465N (glycan site added)”, the other result (N-glycosylation at N465) was “decreases”.

Substance “Du172.17 gp140.664.R4 Env trimer (complex)” showed a stoichiometry N in data set [1] of 3.
